Patent US20200095590A1, “TRANSCRIPTION SYSTEM” (AUTOLUS LIMITED, priority 2016, published 2020)

B1: EOMES: Eomesodermin transcription factor (SEQ ID No. 11), co-expressed with anti-CD19 CAR in T cells (protein, UniProt O95936 1-686, looked up)
Eomesodermin homolog: MQLGEQLLVSSVNLPGAHFYPLESARGGSGGSAGHLPSAAPSPQKLDLDKASKKFSGSLSCEAVSGEPAAASAGAPAAMLSDTDAGDAFASAAAVAKPGPPDGRKGSPCGEEELPSAAAAAAAAAAAAAATARYSMDSLSSERYYLQSPGPQGSELAAPCSLFPYQAAAGAPHGPVYPAPNGARYPYGSMLPPGGFPAAVCPPGRAQFGPGAGAGSGAGGSSGGGGGPGTYQYSQGAPLYGPYPGAAAAGSCGGLGGLGVPGSGFRAHVYLCNRPLWLKFHRHQTEMIITKQGRRMFPFLSFNINGLNPTAHYNVFVEVVLADPNHWRFQGGKWVTCGKADNNMQGNKMYVHPESPNTGSHWMRQEISFGKLKLTNNKGANNNNTQMIVLQSLHKYQPRLHIVEVTEDGVEDLNEPSKTQTFTFSETQFIAVTAYQNTDITQLKIDHNPFAKGFRDNYDSSHQIVPGGRYGVQSFFPEPFVNTLPQARYYNGERTVPQTNGLLSPQQSEEVANPPQRWLVTPVQQPGTNKLDISSYESEYTSSTLLPYGIKSLPLQTSHALGYYPDPTFPAMAGWGGRGSYQRKMAAGLPWTSRTSPTVFSEDQLSKEKVKEEIGSSWIETPPSIKSLDSNDSGVYTSACKRRRLSPSNSSNENSPSIKCEDINAEEYSKDTSKGMGGYYAFYTTP
modifications: co-expressed with anti-CD19 CAR
B2: FOXO1: Forkhead box protein O1 transcription factor (SEQ ID No. 12), co-expressed with anti-CD19 CAR in T cells (protein, listed as Homo sapiens)
chain: MAEAPQVVEIDPDFEPLPRPRSCTWPLPRPEFSQSNSATSSPAPSGSAAANPDAAAGLPSASAAAVSADFMSNLSLLEESEDFPQAPGSVAAAVAAAAAAAATGGLCGDFQGPEAGCLHPAPPQPPPPGPLSQHPPVPPAAAGPLAGQPRKSSSSRRNAWGNLSYADLITKAIESSAEKRLTLSQIYEWMVKSVPYFKDKGDSNSSAGWKNSIRHNLSLHSKFIRVQNEGTGKSSWWMLNPEGGKSGKSPRRRAASMDNNSKFAKSRSRAAKKKASLQSGQEGAGDSPGSQFSKWPASPGSHSNDDFDNWSTFRPRTSSNASTISGRLSPIMTEQDDLGEGDVHSMVYPPSAAKMASTLPSLSEISNPENMENLLDNLNLLSSPTSLTVSTQSSPGTMMQQTPCYSFAPPNTSLNSPSPNYQKYTYGQSSMSPLPQMPIQTLQDNKSSYGGMSQYNCAPGLLKELLTSDSPPHNDIMTPVDPGVAQPNSRVLGQNVMMGPNSVMSTYGSQASHNKMMNPSSHTHPGHAQQTSAVNGRPLPHTVSTMPHTSGMNRLTQVKTPVQVPLPHPMQMSALGGYSSVSSCNGYGRMGLLHQEKLPSDLDGMFIERLDCDMESIIRNDLMDGDTLDFNFDNVLPNQSFPHSVKTTTHSWVSG

Assays:
[1] = target: streptavidin (Streptomyces avidinii, UniProt P22629); settings: biotin mimicking peptide binding streptavidin; read-out: affinity; cited from earlier work
[2] = system: T cells; experiment: Phenotype assay: memory markers by flow cytometry on CAR-TF T cells after co-culture with CD19 positive SKOV3 target cells; assay type: cell-based; settings: for proportion of naive and central memory cells (CM): co-expressed with anti-CD19 CAR (HD37), day 0 (post-transduction) and day 7 (6 days after 24 hour co-culture), CD4+ and CD8+ subpopulations; for CD62L expression / CD27 expression: co-expressed with CAR (HD37)
Text: A bicistronic construct was expressed in BW5 T cells as a single transcript which self-cleaves at the 2A site to yield a chimeric antigen receptor (CAR); and a transcription factor (TF). Control constructs were also generated which lack the 2A site and the transcription factor (“CAR-only”) or lack the CAR and 2A site (“TF-only”).
The CAR was an anti-CD19 CAR comprising an endodomain derived from CD3 zeta and from the co-stimulatory receptor 41BB.
T cells expressing the various CAR-TF combinations, together with the relevant CAR-only and TF-only controls were co-cultured with CD19 positive SKOV3 target cells for 24 hours before recovering and culturing the T cells until day 7. The expression of the following memory markers was analysed by flow cytometry at day 0 of the co-culture and day 7, to see whether cells expressing factors that bias them towards central memory are more nave post-transduction and remain more nave upon stimulation with antigen-bearing target cells.
Memory Markers—CCR7, CD45RA, CD62L, CD27
The cells were gated on CAR-expression (via RQR8 transduction marker) and various T cell and T-cell subset markers (CD3 and CD8) depending on the sub-population of interest.

[3] = 6 days after a 24 hour co-culture with target cells, CD4+ and CD8+ T cells

streptavidin, sequence (P22629 25-183): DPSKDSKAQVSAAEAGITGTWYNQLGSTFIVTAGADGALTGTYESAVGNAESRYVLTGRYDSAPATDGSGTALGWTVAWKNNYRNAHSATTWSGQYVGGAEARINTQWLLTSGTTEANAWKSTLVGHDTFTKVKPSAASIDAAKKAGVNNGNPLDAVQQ

Row | Molecule | Kd [1] [nM] | proportion of naive and central memory cells (CM) [2] | other results
1 | biotin mimicking peptide DVEAWLGAR (SEQ ID NO: 27) (Biotin mimicking peptide, short nanotag) | 17 |  | 
2 | biotin mimicking peptide WSHPQFEK (SEQ ID NO: 29) [streptagII] | 72000 |  | 
3 | biotin mimicking peptide DVEAWLDERVPLVET (SEQ ID NO: 26) (Biotin mimicking peptide, long nanotag) | 3.6 |  | 
4 | biotin mimicking peptide CHPQGPPC (SEQ ID NO: 31) [ccstreptag] | 230 |  | 
5 | BACH2 S520A: mutant Bach2 with S to A substitution at position 520 (SEQ ID No. 9), co-expressed with anti-CD19 CAR |  | increase in the proportion of nave and central memory cells (CM) | 
6 | BACH2: Bach2 wild type transcription factor (SEQ ID No. 8), co-expressed with anti-CD19 CAR in T cells |  | increase in the proportion of nave and central memory cells (CM) | 
7 | Runx3 and CBFbeta: transcription factors Runx3 (SEQ ID No. 13) and CBF beta (SEQ ID No. 22), co-expressed with anti-CD19 CAR in T cells |  |  | CD62L expression ([2]; after transduction (day 0) and 6 days after the 24 hour co-culture): upregulation of CD62L
8 | B1 |  |  | CD27 expression [2, 3]: significant upregulation of CD27; CD62L expression [2, 3]: do not show significant up-regulation of CD62L
9 | B2 |  | greater proportion of nave and central memory cells (CM) | CD27 expression [2, 3]: upregulation of CD27, especially on CD8+ cells; CD62L expression [2, 3]: significant upregulation of CD62L
